Key:
[1] = biological target: mouse IL-17RA (IL-17 receptor) on ST-2 cells (mouse) (UniProt Q60943); assay: cell-based or functional assay
[2] = biological target: T1, huIL-17.Fc (huIL17 with N-terminal flag and huFC (IgG1)) (human, UniProt Q16552 24-155); assay: flow cytometry, huIL-17.Fc staining with anti-huIgG-APC
T1 construct: also called IL-17 fused to human Fc; not shown: human IgG1 Fc (huFC)
Method: Cells were incubated with M750 or M177 anti-mouse IL-17RA followed by anti-rat PE (BD Pharmigen). To prepare huIL-17.Fc, a cDNA encoding huIL17, N-terminal flag and huFC (IgG1) was amplified by PCR and cloned into the Pdc409 vector. Secreted IL17.Fc was purified from transfected COS cells over a Protein A column and its concentration determined using a human Fc ELISA. For binding, 293 cells were blocked with anti-human IL-17RA (M202) and stained with huIL17.Fc followed by anti-hulgG-APC (Jackson Immunoresearch, West Grove, Pa.). Data were analyzed on a FACSCalibur with Cell Quest software (BD Biosciences). FRET data were obtained from three channel images using the macro of LSM FRET tool software (Zeiss AIM software, per standard techniques). A minimum of 50 regions of interest at the membrane were assessed for each condition. FRET efficiencies were calculated by the NFRET method and significance determined by t-test.

[3] = biological target: human IL-17RA on normal human foreskin fibroblasts (HFF) (human) (UniProt Q96F46); assay: cell-based or functional assay
[4] = biological target: T2, IL-17RA FN1 domain fused to the Gal4 DNA binding domain (pGBKT7) (yeast, UniProt P04386 1-147, limits assumed); assay: yeast two-hybrid, growth on -Leu/-Trp/-Ade
T2 construct: Only the FN1 domain was used
Method: The IL-17RA ECD, FN2, FN2/linker and FN1 domains were fused to the Ga14 DNA binding domain (BD) or activation domain (AD) in the Pgbkt7 and Pgadat7 yeast expression plasmids (BD Clontech). S. cerevisiae were transformed by standard methods, and growth on Leu-Trp-deficient plates or Leu-Trp-Ade-deficient plates was evaluated by colony counting. CARMA1 (provided by X. Lin, MD Anderson Cancer Center, Houston Tex.) was used a positive control.
To obtain the data presented Table 1, full length (FL) IL-17RA or the FN1, FN2/linker or FN2 domains were fused to the yeast Ga14 DNA binding domain (BD) or activation domain (AD) in the pGBKT7 and pGADT7 plasmids. S. cerevisiae were transformed with the indicated pairs of plasmids and growth on Leu-Trp-deficient plates (selecting for both plasmids) or Leu-Trp-Ade-deficient plates (selecting for each plasmid and an interaction) was evaluated. CARMA1 was a positive control. FL, full length. FN, fibronectin.

Sequence of mouse IL-17RA (IL-17 receptor) on ST-2 cells (mouse) (Q60943 32-864): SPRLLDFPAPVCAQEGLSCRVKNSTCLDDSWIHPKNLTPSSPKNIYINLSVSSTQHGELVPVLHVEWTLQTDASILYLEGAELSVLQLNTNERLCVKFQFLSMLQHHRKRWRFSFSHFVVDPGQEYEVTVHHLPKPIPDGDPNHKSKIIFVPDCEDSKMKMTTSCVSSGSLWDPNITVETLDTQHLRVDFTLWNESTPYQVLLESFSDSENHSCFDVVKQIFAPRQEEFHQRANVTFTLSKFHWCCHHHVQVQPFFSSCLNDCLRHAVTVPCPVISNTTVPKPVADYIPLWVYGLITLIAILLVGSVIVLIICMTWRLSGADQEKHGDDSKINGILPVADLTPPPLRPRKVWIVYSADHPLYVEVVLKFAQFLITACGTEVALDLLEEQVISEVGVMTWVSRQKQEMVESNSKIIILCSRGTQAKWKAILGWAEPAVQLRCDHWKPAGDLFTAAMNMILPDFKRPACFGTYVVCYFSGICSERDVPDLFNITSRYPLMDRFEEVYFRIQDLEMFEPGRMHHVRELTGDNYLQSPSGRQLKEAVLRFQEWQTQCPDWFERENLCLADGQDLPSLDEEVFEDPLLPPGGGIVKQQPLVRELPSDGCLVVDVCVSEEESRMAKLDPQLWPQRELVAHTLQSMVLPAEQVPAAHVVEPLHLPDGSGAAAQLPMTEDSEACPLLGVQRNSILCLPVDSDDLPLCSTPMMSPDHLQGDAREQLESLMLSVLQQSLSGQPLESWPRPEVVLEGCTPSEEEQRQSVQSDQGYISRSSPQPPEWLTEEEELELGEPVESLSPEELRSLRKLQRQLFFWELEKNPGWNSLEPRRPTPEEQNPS
T1 sequence (Q16552 other isoform, or with tags, fused parts or gaps limits assumed): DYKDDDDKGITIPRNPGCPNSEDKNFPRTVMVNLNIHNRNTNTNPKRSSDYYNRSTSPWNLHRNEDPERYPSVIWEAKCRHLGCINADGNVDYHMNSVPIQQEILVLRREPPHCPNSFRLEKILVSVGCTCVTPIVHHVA

Molecule: muPLAD-L (murine PLAD/Linker construct, linker and FN2 of mouse IL-17RA) (from UniProt Q60943 184-283) (receptor)
- IL-6 (ELISA) from ST-2 cells + IL-17A 10 ng/ml, muPLAD-L at 3 ug/ml [1]: 2710 pg/mL
- IL-6 (ELISA) from ST-2 cells + IL-17A 10 ng/ml, muPLAD-L at 3 ug/ml (Example 9) [1]: 182 pg/mL
- IL-6 (ELISA) from ST-2 cells + IL-17A 10 ng/ml, muPLAD-L at 10 ug/ml [1]: 2790 pg/mL
- IL-6 (ELISA) from ST-2 cells + IL-17A 10 ng/ml, muPLAD-L at 10 ug/ml (Example 9) [1]: 110 pg/mL
- IL-6 (ELISA) from ST-2 cells + IL-17A 10 ng/ml, muPLAD-L at 30 ug/ml [1]: 1880 pg/mL
- IL-6 (ELISA) from ST-2 cells + IL-17A 10 ng/ml, muPLAD-L at 30 ug/ml (Example 9) [1]: 110 pg/mL
- IL-6 (ELISA) from ST-2 cells + IL-17A + TNFa 2 ng/ml, muPLAD-L at 3 ug/ml [1]: 7020 pg/mL
- IL-6 (ELISA) from ST-2 cells + IL-17A + TNFa 2 ng/ml, muPLAD-L at 10 ug/ml [1]: 7040 pg/mL
- IL-6 (ELISA) from ST-2 cells + IL-17A + TNFa 2 ng/ml, muPLAD-L at 30 ug/ml [1]: 7180 pg/mL
- KC (Groα) (ELISA) from ST-2 cells + IL-17A 10 ng/ml, muPLAD-L at 3 ug/ml [1]: 5980 pg/mL
- KC (Groα) (ELISA) from ST-2 cells + IL-17A 10 ng/ml, muPLAD-L at 10 ug/ml [1]: 5440 pg/mL
- KC (Groα) (ELISA) from ST-2 cells + IL-17A 10 ng/ml, muPLAD-L at 30 ug/ml [1]: 6230 pg/mL
- KC (Groα) (ELISA) from ST-2 cells + IL-17A + TNFa, muPLAD-L at 3 ug/ml [1]: 5750 pg/mL
- KC (Groα) (ELISA) from ST-2 cells + IL-17A + TNFa, muPLAD-L at 10 ug/ml [1]: 5550 pg/mL
- KC (Groα) (ELISA) from ST-2 cells + IL-17A + TNFa, muPLAD-L at 30 ug/ml [1]: 5500 pg/mL

Molecule: muPLAD (murine PLAD construct, FN2 of mouse IL-17RA without the linker) (from UniProt Q60943 205-283) (receptor)
- IL-6 (ELISA) from ST-2 cells + IL-17A 10 ng/ml, muPLAD at 3 ug/ml [1]: 2240 pg/mL
- IL-6 (ELISA) from ST-2 cells + IL-17A 10 ng/ml, muPLAD at 3 ug/ml (Example 9) [1]: 155 pg/mL
- IL-6 (ELISA) from ST-2 cells + IL-17A 10 ng/ml, muPLAD at 10 ug/ml [1]: 2530 pg/mL
- IL-6 (ELISA) from ST-2 cells + IL-17A 10 ng/ml, muPLAD at 10 ug/ml (Example 9) [1]: 125 pg/mL
- IL-6 (ELISA) from ST-2 cells + IL-17A 10 ng/ml, muPLAD at 30 ug/ml [1]: 2040 pg/mL
- IL-6 (ELISA) from ST-2 cells + IL-17A 10 ng/ml, muPLAD at 30 ug/ml (Example 9) [1]: 108 pg/mL
- IL-6 (ELISA) from ST-2 cells + IL-17A + TNFa 2 ng/ml, muPLAD at 3 ug/ml [1]: 6980 pg/mL
- IL-6 (ELISA) from ST-2 cells + IL-17A + TNFa 2 ng/ml, muPLAD at 10 ug/ml [1]: 6980 pg/mL
- IL-6 (ELISA) from ST-2 cells + IL-17A + TNFa 2 ng/ml, muPLAD at 30 ug/ml [1]: 6980 pg/mL
- KC (Groα) (ELISA) from ST-2 cells + IL-17A 10 ng/ml, muPLAD at 3 ug/ml [1]: 6190 pg/mL
- KC (Groα) (ELISA) from ST-2 cells + IL-17A 10 ng/ml, muPLAD at 10 ug/ml [1]: 6130 pg/mL
- KC (Groα) (ELISA) from ST-2 cells + IL-17A 10 ng/ml, muPLAD at 30 ug/ml [1]: 6100 pg/mL
- KC (Groα) (ELISA) from ST-2 cells + IL-17A + TNFa, muPLAD at 3 ug/ml [1]: 6150 pg/mL
- KC (Groα) (ELISA) from ST-2 cells + IL-17A + TNFa, muPLAD at 10 ug/ml [1]: 6460 pg/mL
- KC (Groα) (ELISA) from ST-2 cells + IL-17A + TNFa, muPLAD at 30 ug/ml [1]: 6300 pg/mL

B1: FN2 domain construct of IL-17RA (lacking FN1 and the linker), expressed on cells (receptor)
chain: PNITVETLDTQHLRVDFTLWNESTPYQVLLESFSDSENHSCFDVVKQIFAPRQEEFHQRANVTFTLSKFHWCCHHHVQV
notes: not shown: transmembrane region, cytoplasmic part and any tag of the construct
- binding result [2]: no binding

B2: IL-17R PLAD-mod-GSS-FH (recombinant human IL-17R PLAD without the linker, second generation construct) (receptor)
chain: PNITVETLEAHQLRVSFTLWNESTHYQILLTSFPHMENHSCFEHMHHIPAPRPEEFHQRSNVTLTLRNLKGCCRHQVQIQPFFSSCLNDCLRHSATVSCPEMPDTPEPIPDGSSDYKDDDDKGSSHHHHHH
- GROα (ELISA) from HFF + 5 ng/mL huIL-17A, IL-17R PLAD-mod-GSS-FH at 0.032 ug/mL [3]: 467 pg/mL
- GROα (ELISA) from HFF + 5 ng/mL huIL-17A, IL-17R PLAD-mod-GSS-FH at 0.16 ug/mL [3]: 486 pg/mL
- GROα (ELISA) from HFF + 5 ng/mL huIL-17A, IL-17R PLAD-mod-GSS-FH at 0.8 ug/mL [3]: 484 pg/mL
- GROα (ELISA) from HFF + 5 ng/mL huIL-17A, IL-17R PLAD-mod-GSS-FH at 4 ug/mL [3]: 499 pg/mL
- GROα (ELISA) from HFF + 5 ng/mL huIL-17A, IL-17R PLAD-mod-GSS-FH at 20 ug/mL [3]: 440 pg/mL
- GROα (ELISA) from HFF + 5 ng/mL huIL-17A, IL-17R PLAD-mod-GSS-FH at 100 ug/mL [3]: 411 pg/mL

B3: IL-17R PLAD-LINKER-GSS-FH (recombinant human IL-17R PLAD-linker, first generation construct) (receptor)
chain: DCEHARMKVTTPCMSSGSLWDPNITVETLEAHQLRVSFTLWNESTHYQILLTSFPHMENHSCFEHMHHIPAPRPEEFHQRSNVTLTLRNLKGCCRHQVQ
- GROα (ELISA) from HFF + 5 ng/mL huIL-17A, IL-17R PLAD-LINKER-GSS-FH at 0.032 ug/mL [3]: 437 pg/mL
- GROα (ELISA) from HFF + 5 ng/mL huIL-17A, IL-17R PLAD-LINKER-GSS-FH at 0.16 ug/mL [3]: 541 pg/mL
- GROα (ELISA) from HFF + 5 ng/mL huIL-17A, IL-17R PLAD-LINKER-GSS-FH at 0.8 ug/mL [3]: 460 pg/mL
- GROα (ELISA) from HFF + 5 ng/mL huIL-17A, IL-17R PLAD-LINKER-GSS-FH at 4 ug/mL [3]: 381 pg/mL
- GROα (ELISA) from HFF + 5 ng/mL huIL-17A, IL-17R PLAD-LINKER-GSS-FH at 20 ug/mL [3]: 310 pg/mL
- GROα (ELISA) from HFF + 5 ng/mL huIL-17A, IL-17R PLAD-LINKER-GSS-FH at 100 ug/mL [3]: 315 pg/mL

B4: IL-17RA FN1 domain fused to the Gal4 activation domain (pGADT7) (other, not shown: large carriers)
chain: TPSSPKNIYINLSVSSTQHGELVPVLHVEWTLQTDASILYLEGAELSVLQLNTNERLCVKFQFLSMLQHHRKRWRFSFSHFVVDPGQEYEVTVHHLPKPIPDGDPNHKSKIIFVP
notes: Only the FN1 domain was used; Species is inferred as mouse
- binding result [4]: no binding

B5: IL-17R PLAD-GSS-FH (recombinant human IL-17R PLAD without the linker, first generation construct) (receptor)
chain: PNITVETLEAHQLRVSFTLWNESTHYQILLTSFPHMENHSCFEHMHHIPAPRPEEFHQRSNVTLTLRNLKGCCRHQVQ
- GROα (ELISA) from HFF + 5 ng/mL huIL-17A, IL-17R PLAD-GSS-FH at 0.032 ug/mL [3]: 460 pg/mL
- GROα (ELISA) from HFF + 5 ng/mL huIL-17A, IL-17R PLAD-GSS-FH at 0.16 ug/mL [3]: 463 pg/mL
- GROα (ELISA) from HFF + 5 ng/mL huIL-17A, IL-17R PLAD-GSS-FH at 0.8 ug/mL [3]: 471 pg/mL
- GROα (ELISA) from HFF + 5 ng/mL huIL-17A, IL-17R PLAD-GSS-FH at 4 ug/mL [3]: 420 pg/mL
- GROα (ELISA) from HFF + 5 ng/mL huIL-17A, IL-17R PLAD-GSS-FH at 20 ug/mL [3]: 363 pg/mL
- GROα (ELISA) from HFF + 5 ng/mL huIL-17A, IL-17R PLAD-GSS-FH at 100 ug/mL [3]: 300 pg/mL
